In the supplement of paper PMC12764529:
± gives the half width of the 95% confidence interval.

How the values were obtained:
[1] = folding stability dG unfold from chymotrypsin proteolysis; higher = more stable
Procedure, shortened: (§1)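 Bayesian fitting of sequencing counts gave K50 for each design. Unfolding free energy followed by setting this against a sequence-predicted unfolded-state K50 and a shared folded-state K50, either per protease or with trypsin and chymotrypsin combined. The designs, under 80 residues and lacking cysteine, were digested in a PA-tagged cDNA display format at 11 threefold-diluted protease concentrations and without protease, and only those with AlphaFold2 dimer inter-PAE above 15 were kept.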

[2] = folding stability dG unfold from trypsin proteolysis; higher = more stable
Procedure, shortened: as §1

[3] = folding stability dG unfold (combined trypsin and chymotrypsin); higher = more stable
Procedure, shortened: as §1

Sequence | folding stability dG unfold [1] [kcal/mol] | folding stability dG unfold [2] [kcal/mol] | folding stability dG unfold [3] [kcal/mol]
SASLVPTEREFELPGGERLRVTTPLDPNSDTPTVTVEKFTEAPDGTVTSTTTTVPPSEVAAVLEALGLRSAG [r14_416_JUSTAS] | 0.147 ± 0.045 | 0.664 ± 0.023 | 0.423 ± 0.052
SASLVVRLPDGTEILFENLSLEEVVKLFDGGEIEIEPVPKLPVVNASSLEEAEEIAEKLKPDFVITLSGSAG [r14_445_TrMRF] | 1.6 ± 0.044 | 1.6 ± 0.088 | 1.61 ± 0.074
SASNRVTVSSETVREGDKKLLKLTVTITDSSTGRTSTETLTTEDPEKAREELAARPDVSTLTFETLTPGSAG [r14_464_JUSTAS] | -0.196 ± 0.2 | 0.303 ± 0.12 | 0.1 ± 0.19
SASPDAPVEVVVSLRELRERIEAEHPGRPVTPEDVAALAREELEAAGRPLEDLRVEAVDEATGTVRLVASAG [r14_303_JUSTAS] | 1.29 ± 0.019 | -0.251 ± 0.054 | 0.907 ± 0.035
SASPDETVILEKVLPPSASPEEVEKEREEIREKLESLGAKVEVTIEPDPETGTIPIKITITKEQYEKLKSAG [r14_602_JUSTAS] | 0.0517 ± 0.056 | -0.459 ± 0.064 | 0.034 ± 0.15
SASPRTITVPVTRFPDGTVRFTIETPDKTITLTFPPSATFEEALEKLSPDPDKKITLVEKDPTTVTVAESAG [r14_404_JUSTAS] | 0.852 ± 0.16 | 0.781 ± 0.051 | 0.873 ± 0.13
SASSELLELLKALPTPEVPTDPIFTLEEPDRPIRVLSYDPETGLVTMLIPGTGARLIRDPASGTYTLLPSAG [r14_359_JUSTAS] | 0.92 ± 0.071 | -0.184 ± 0.07 | 0.578 ± 0.066
SASSFPPGSTATLTVRVTDPAGTATTTLTIPLSVDPSTGKAVSLEEVYEILKELGVDPANVTITSLTVSSAG [r14_93_JUSTAS] | 3.143 ± 0.024 | 3.07 ± 0.088 | 3.07 ± 0.08
SASSSFTLPGLKLEVETQKVSTFPTPDGTPVVLYETTIHFLEVPESLRAEGKPLSLESSVKKLKVVPLPSAG [r14_942_JUSTAS] | 0.453 ± 0.33 | 0.277 ± 0.14 | 0.391 ± 0.2
SASSSMSSSSTSRTVPTPEGPVSITITFYPSTGKYTATITDPATSTATTVPSPGSSVEEAIAEAIALLASAG [r14_65_JUSTAS] | 2.39 ± 0.022 | 1.94 ± 0.091 | 2.21 ± 0.088
SASSVEKEFDSIEDALKAIKEALAKKVPVKMKMDPETVKELKKAGFPDIDVTKEKLPNGNEYYLLELLFSAG [r14_127_JUSTAS] | 1.2 ± 0.051 | 1.06 ± 0.019 | 1.15 ± 0.058
SASVTTLTFTVTYPGGETETFTVTVPNLTEEEAKALAEKLAEEIQEKSKKPGVKVEVSITRYPADDPALSAG [r14_207_JUSTAS] | 4.13 ± 0.21 | 3.9 ± 0.17 | 4.2 ± 0.18
SATKTITIELPVDVPVEVLKEFFEALGFTEMEFYETEDPRTLVVRFTVPGDPVTVIVIVRPLPVPPDEPLSA [r9_1090_TrMRF] | 3.57 ± 0.063 | 3.29 ± 0.16 | 3.55 ± 0.12
SATLTFTATLPDGSRVLEVTAEPRPDGTVTIRMRAEFTFAPGVTVTVPATITVPVPPPPALPPDDPRLFSAG [r14_95_TrMRF] | 3.33 ± 0.05 | 2.73 ± 0.057 | 3.09 ± 0.086
SATPYTFTLPDGYVIPAYKLPDGTVRVTAQYYDPVDRKPVGTYEATADPTDGTIELTFPNGDKATITLPDSA [r9_56_TrMRF] | 1.01 ± 0.1 | 0.859 ± 0.051 | 1.01 ± 0.09
SAVSTAQLPDDTTLTTITLPGDPSVTLTITTRKLPDGTPYLDATITLPDGTPVTVTFPAGTEAAVIAALASA [r9_310_JUSTAS] | 2.46 ± 0.029 | 2.51 ± 0.097 | 2.44 ± 0.086
SAVTLLSTEFVPEEGVVRLLFERPAPPDTTTFTFSVSVNGYPIESISLSVDPATNTATATATAKVPPGLSAG [r14_244_JUSTAS] | 4.1 ± 0.11 | 2.42 ± 0.16 | 3.2 ± 0.22
SAWIEIEKDPDGMFELEIPWPDGHPVKIHYNPDDGKPLHIMFPNGWHLQIWISPDGKIEIEDIHPIPPNSAG [r14_877_TrROS] | 3.12 ± 0.049 | 3.11 ± 0.24 | 3.01 ± 0.13
SAWKIWIEFTPGDPGDTYQIRIDPNSPNLEALLKELAQMFKYEVKDAEVEYNPNGSVWVEFKVDELKPPSAG [r14_655_TrROS] | 2.67 ± 0.056 | 1.77 ± 0.081 | 2.37 ± 0.095
SDIEIERDPNMIRIEHTYPFDNYRVKISLYVMVGPDGQFMLMIPIEIELPPPPPTPEKDPNGKEKWKPDASA [r9_456_TrROS] | 4.27 ± 0.21 | 2.67 ± 0.21 | 3.85 ± 0.53
SDIKIENYERNPGNGMYMWTVKLPDDGKKIEIMYPPGGIYISVEHPGKKKMFPFKSWEDMLDQVKDLLKNSA [r9_527_TrROS] | 1.79 ± 0.23 | 1.24 ± 0.045 | 1.36 ± 0.26

Sequence | folding stability dG unfold [1] [kcal/mol] | folding stability dG unfold [2] [kcal/mol] | folding stability dG unfold [3] [kcal/mol]
SDKIIIPIYLPPGQDPDEIKNEIKWFARELWDKLGLPPNVKVEIEPRPYPEGYRRYMITIRLGGKEITIWSA [r9_776_TrROS] | 3.6 ± 0.053 | 3.08 ± 0.1 | 3.34 ± 0.22
SDKIKNMTIEEILKKLPKGVKVGEKVEIEIDGKKITITKVEVVKDKNGKEIKRIYIEVEIDGEKIIIEIESA [r9_279_TrROS_Hall] | 2.36 ± 0.27 | 2.39 ± 0.23 | 2.69 ± 0.46
SDMKIRIDDIDIQPLDEDGQPITINYKIEFGGQPVYFQIEIWVKPDGPVVIKIDIYNPDNGKPFEWTFPISA [r9_241_TrROS] | 2.83 ± 0.08 | 2.13 ± 0.09 | 2.48 ± 0.23
SDPGHKFKMEIVREIYLPGQIRIFVHKMEHPNGNPWVNVMVRNPDGQMEPIAMVPSDDPDAKDEALKLIKSA [r9_1069_TrROS] | 0.506 ± 0.14 | 0.035 ± 0.12 | 0.391 ± 0.1
SDRIEIEIWRHPNWWMIKIKVRDDGEPVGTQSFPVDDGMDIEEIADNLLNRNPNYKVEITEIEPMPPPPGSA [r9_364_TrROS] | 3.82 ± 0.12 | 2.86 ± 0.16 | 3.36 ± 0.41
SDYMPVHKMESDGKRNPNGQHEYEPKMEPVWVPVPPPPPRIRIPPEWREKLKELAEKLGHPITDDDINKISA [r9_487_TrROS] | 0.0759 ± 0.051 | -0.283 ± 0.19 | -0.13 ± 0.31
SEALEKAAEAGVKTIYVYVKPGDLEEIKRLKALDVKIVLYATEEIPPEAFEALPGVKVEKVEWISPEELPSA [r9_671_TrMRF] | 2.08 ± 0.052 | 0.759 ± 0.023 | 1.65 ± 0.1
SEEELENLPNVVRLELEVEIDGVRVRIETEFRLNEDGSLEVRTRIEVEPLPPPVEVVLDENGELVEVRVESA [r9_456_TrROS_Hall] | 3.42 ± 0.13 | 2.81 ± 0.08 | 3.12 ± 0.14
SEGSVRLEFTFTLPDGTRLTVEVTVHYDAATGEFHVSVSVRVEPLPDTSRPWEERPVRLPDGTWVSAADLSA [r9_898_TrMRF] | 2.28 ± 0.1 | 2.54 ± 0.071 | 2.5 ± 0.13
SEITIKLKVENLSEEELKKLAEELAKEGLFEITSIKVENGYVTITIKKKPKPPPKPEKKKVVFDKDGKPVSA [r9_830_TrROS_Hall] | 2.58 ± 0.12 | 0.975 ± 0.071 | 2.2 ± 0.14
SEITIYNKGKPPPEELLEALKKAPGFPPEDLRKNTKVEPNKDGPQITIPPEQAEQMSKRNPRIMEAIRELSA [r9_160_TrROS] | 1.75 ± 0.37 | 1.64 ± 0.098 | 1.44 ± 0.48
SEKLTEEEVEKLAEELAKELEEETGKKVTVEVEVEKVEVEKDGEKEEVEVVRIKITVDPETGEVTIEVEPSA [r9_9_TrROS_Hall] | 1.43 ± 0.2 | 1.49 ± 0.11 | 1.56 ± 0.45
SEKPPKVKIVSVEYNPETGTVTITVEVEPGQKVRIFVRNSDGSVQEIDLESKTITINLPPGAEIVRIEVLSA [r9_113_TrROS_Hall] | 4.16 ± 0.12 | 3.9 ± 0.23 | 4.09 ± 0.14
SEKVKKELNEAGYPVKDIKFVPEKGYAYITVEVYVPEVDKKVEKEIVIPFPDSATPEQLTEAARKALEADSA [r9_184_TrMRF] | 3.04 ± 0.076 | 3.04 ± 0.11 | 3.09 ± 0.092
SEMTAEELAARLAERLAEEHPGEEVTVEIEVEAEVVDEETGETRTVRVTVTLRFRDGKVEVVDVKVEELPSA [r9_361_TrROS_Hall] | 4.49 ± 0.066 | 3.43 ± 0.092 | 4.18 ± 0.086
SEPPPKIKIKEVEYNPDDGYLTIPVTHPNGPKMRVKFRPPDGKTQEIPPNSPTITIPLPPNMRLTEIEVDSA [r9_113_TrROS] | 2.79 ± 0.29 | 3.51 ± 0.31 | 3.22 ± 0.33
SETVEIEIELPDGTKVTITVDKDGKVHITIEVPEDNPELLEKGSIEELAKKLAEELGLSEKDVEVTVLPPSA [r9_401_TrROS_Hall] | 2.45 ± 0.24 | 2.98 ± 0.29 | 2.8 ± 0.27
SEVVDTFSPPVTGSGEPRDFEIRLIKDENGNPVSVTMFDPVTGVEYPPDVSLEDLGVPPPVVEAFEAARRSS [r1_354_JUSTAS] | 0.0636 ± 0.062 | -0.48 ± 0.08 | -0.0908 ± 0.069
SEVVFTLKDKPSPEELLKALAAVPGFSLETILKNTKVSPGKTGPKLTIKKEDFEKLEKENPEALEIIRSGSA [r9_160_TrMRF] | 1.01 ± 0.11 | 1.2 ± 0.026 | 1.09 ± 0.089
SFGMIEIENEAFLPDGFRFKVEVWVMVDPDNGNLMIMLDIEIEPIPPPPPPPEPKPVKDKNGDWKPANDMSA [r9_898_TrROS] | 3.79 ± 0.14 | 1.82 ± 0.14 | 3.12 ± 0.18
SFHVERDPEDNTIYIHFPPGMDPLELAKSLLKELREQQDDGPIKIHVHYGDWVFEIDIKKGKIEVRPPGESA [r9_224_TrROS] | 1.19 ± 0.16 | 1.41 ± 0.1 | 1.23 ± 0.18
